Measured values published in article PMC2670837, “Staphylococcus aureus immunodominant surface antigen B is a cell-surface associated nucleic acid binding protein”.

Experiments:
[1] = target: T1, IsaB (recombinant, untagged) (Staphylococcus aureus 10833) (UniProt Q9LAB5); assay: SPR; conditions: EMSA: 20 mM HEPES, 1 mM DTT, 20 mM KCl, 200 ug/ml BSA, 10% glycerol, room temperature, 10 min, SPR: 0.33x HBS-EP + non-specific binding inhibitor, SA chip …
T1 sequence: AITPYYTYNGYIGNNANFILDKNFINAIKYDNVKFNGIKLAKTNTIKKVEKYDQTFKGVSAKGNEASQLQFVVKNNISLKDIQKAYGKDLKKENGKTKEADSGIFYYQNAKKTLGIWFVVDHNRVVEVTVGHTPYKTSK

[2] = target: T2, IsaB (recombinant, untagged) (Staphylococcus aureus 10833, UniProt Q9LAB5 37-175); assay: EMSA; 240 pmol-3.84 nmol IsaB; shift abolished by salmon sperm DNA or yeast tRNA, not by dNTPs; EMSA: 20 mM HEPES, 1 mM DTT, 20 mM KCl, 200 ug/ml BSA, 10% glycerol, room temperature, 10 min; SPR: 0.33x HBS-EP + non-specific binding inhibitor, SA chip, Biacore T100; pull-down: 10 mM HEPES, 60 mM KCl, 4 mM MgCl2, 0.1 mM EDTA, 0.1 mg/ml BSA, 0.25 mM DTT, on ice; pH not stated; conditions: protein: recombinant; label: Alexa Fluor 594 (ULYSIS)
T2 sequence: T1 sequence

Molecule: ATTGVGTTATCAATAATCTTA [BioticaPRO (ssDNA SPR bait; identity inferred)]
- Kd (M (unit not given)) [1]: 1.08e-08

Molecule: TNGUGCAAUUACAAAUAUUUCCGUUUAAUUAUAACAACAAUCUAUUGCA [WTUTR(RNA) (RNA SPR bait; identity inferred)]
- Kd (M (unit not given)) ([1]; ribonucleotides with 3' terminal deoxy GCA): 1.65e-08

Molecule: ATTGVGTTATCAATAATCTTA / GGTGGGATCCTTGAAGGATAAGATTA
- Kd (M (unit not given)) [1]: 8.1e-09

Molecule: GUUUAAUUAUAACAACAAUCUAUUGCA (ssRNA) [icaUTR6]
- binding result [2]: binds
